Assay results as given in paper PMC11079029 (2024).

Biological target: PRPF40A WW12 (tandem WW domains, residues 141-236) (human, UniProt O75400 141-236)
Test: ITC

Sequence of PRPF40A WW12 (tandem WW domains, residues 141-236) (O75400 141-236): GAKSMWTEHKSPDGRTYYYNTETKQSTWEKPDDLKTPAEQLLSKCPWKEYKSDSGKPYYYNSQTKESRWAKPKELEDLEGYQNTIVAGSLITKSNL

Binder | Kd [µM]
GAMSGSPPPPPPPPPPPPPPPPSGSN [GB1-tagged polyproline peptide P16] | 3.35
GAMSGSPPPPPPPPPPSGSN [GB1-polyproline peptide P10] | 28.6
